Source: publication PMC13083955

Tests used:
[1] = target: Dsk2 UBA (Saccharomyces cerevisiae) (UniProt P48510); settings: cited from earlier work
[2] = target: full-length Dsk2 (yeast (S. cerevisiae)) (UniProt P48510)

Substance	Kd [1]	phase separation of Dsk2 alone, saturation concentration (csat) against temperature (20 mM NaPhosphate pH 6.8, 150 mM NaCl, 7.5% PEG 8000, 0.5 mM EDTA) [2]
Dsk2 UBL (from UniProt P48510)	80 µM	–
full-length Dsk2 (from UniProt P48510 1-373) (natural protein)	–	10 µM
